# Experimental data from PMC2949298 (Nature structural & molecular biology, 2010).
# B1: 21c Fab (Fab, V domains shown)
# VH: QVQVVQSGAEVRKPGASVKVSCKVSGFTLTGLSIHWVRQAPGKGLEWMGGFGPEENEIIYAQKFQGRVSMTEDTSTNTAYMELSSLRSEDTAVYYCATGGNYYNLWTGYYPLAYWGQGTLVTVSS
# VL: QSVLTQPPSVSAAPGQKVTISCSGSSSNIGKNYVSWYQQLPGAAPKLLIFDDTQRPSGIPDRFSGSKSGTSATLAITGLQTGDEADYYCGTWDSSLSTGQLFGGGTKLTVL
# Experiments:
# Experiment in all cases: SPR
# [1] = target: UC1_(Full-length) (V1V2-containing UC1 gp120, HIV-2) with sCD4 (HIV-2 isolate UC1 gp120; human CD4, UniProt Q76638;PDB, strain)
# [2] = target: soluble CD4 (domains 1 and 2 from human CD4) (human)
# [3] = target: CAP210–sCD4 complex (core CAP210 gp120 with sCD4) (HIV-1 clade C CAP210.2.00.E8 gp120; …, strain)
binder,measurement,setting,value
B1,binding result,[1],binds
same,Kd,[2],> 100000 nM
same,Kd,[3],1600 nM
